Data: paper PMC8763006

Molecular target: glutathione S-transferase Pi 1 (GSTP1) (human (endogenous in 97H and Huh7)), P09211
Experiment: native gel or EMSA; total protein of 97H-PCSK9 and 97H-mock cells in nondenaturing, nonreducing buffer without boiling, PAGE gel without SDS; Western blot with anti-GSTP1
Settings: remark: other sources report otherwise

stoichiometry N: 2
B1: glutathione S-transferase Pi 1 (GSTP1), P09211 1-210 (natural protein)
chain: MPPYTVVYFPVRGRCAALRMLLADQGQSWKEEVVTVETWQEGSLKASCLYGQLPKFQDGDLTLYQSNTILRHLGRTLGLYGKDQQEAALVDMVNDGVEDLRCKYISLIYTNYEAGKDDYVKALPGQLKPFETLLSQNQGGKTFIVGDQISFADYNLLDLLLIHEVLAPGCLDAFPLLSAYVGRLSARPKLKAFLASPEYVNLPINGNGKQ
